Experimental data taken from US20200172619A1.
Like-named read-outs stand apart in the source and are kept apart here.

Tests used:
[1] = target: TNFR1 on the surface of cells (HT1080, HeLa, Kym-1) (human) (UniProt P19438); experiment: cell-based or functional assay
[2] = target: human TNFR1-Fc fusion protein (human) (UniProt P19438); experiment: ELISA, human TNFR1-Fc
[3] = target: human TNFR1-Fc fusion protein (human) (UniProt P19438); experiment: ELISA, immobilized human TNFR1-Fc
[4] = target: TNFR1 on the surface of cells (HT1080, HeLa, Kym-1) (human) (UniProt P19438); experiment: cell-based or functional assay; remark: listed apart in the source

TNFR1 on the surface of cells (HT1080, HeLa, Kym-1) (human), sequence (P19438 30-455): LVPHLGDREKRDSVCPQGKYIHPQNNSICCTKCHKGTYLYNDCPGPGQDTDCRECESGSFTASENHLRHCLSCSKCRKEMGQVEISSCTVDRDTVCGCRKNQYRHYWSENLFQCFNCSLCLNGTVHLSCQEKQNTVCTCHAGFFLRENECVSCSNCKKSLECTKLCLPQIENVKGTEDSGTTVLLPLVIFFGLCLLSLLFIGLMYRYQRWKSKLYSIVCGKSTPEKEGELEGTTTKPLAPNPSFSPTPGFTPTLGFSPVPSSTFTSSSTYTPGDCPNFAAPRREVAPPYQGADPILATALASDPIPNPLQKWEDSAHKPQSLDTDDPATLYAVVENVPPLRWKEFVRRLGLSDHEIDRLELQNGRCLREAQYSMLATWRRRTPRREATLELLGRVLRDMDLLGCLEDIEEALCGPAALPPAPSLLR
human TNFR1-Fc fusion protein (human), sequence (P19438 30-211): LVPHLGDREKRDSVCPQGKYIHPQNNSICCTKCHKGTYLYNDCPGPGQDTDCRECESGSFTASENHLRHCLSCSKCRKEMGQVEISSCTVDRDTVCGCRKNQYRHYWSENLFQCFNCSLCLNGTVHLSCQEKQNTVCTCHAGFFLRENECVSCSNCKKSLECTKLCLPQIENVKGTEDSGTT

- IC50, IL-6 [nM] (HeLa cells, 0.1 nM TNF) [1]: 165 nM
- IC50, IL-8 [nM] (HT1080 cells, 0.1 nM TNF) [1]: 84.1 nM
- IL-8 Inhibition IC50 [1]: 97.8 nM
- EC50 [2]: 0.09 nM
- EC50 [3]: 0.4 nM
- IL-8 Inhibition IC50 [4]: 136 nM
Substance: ATROSAB (antibody)
- IC50, Cell death induction [nM] (Kym-1 cells, 0.01 nM TNF) [1]: 64.4 nM
